Reference: patent US11427623

Columns and labels:
[1] = biological target: KLB (beta-klotho) on KLB only expressing cells (UniProt Q86Z14); assay: cell-based or functional assay
[2] = biological target: KLB/FGFR4 on KLB/FGFR4 expressing cells (UniProt Q86Z14); assay: cell-based or functional assay
KLB/FGFR4 on KLB/FGFR4 expressing cells, sequence (Q86Z14 whole entry, chain 1 of 2): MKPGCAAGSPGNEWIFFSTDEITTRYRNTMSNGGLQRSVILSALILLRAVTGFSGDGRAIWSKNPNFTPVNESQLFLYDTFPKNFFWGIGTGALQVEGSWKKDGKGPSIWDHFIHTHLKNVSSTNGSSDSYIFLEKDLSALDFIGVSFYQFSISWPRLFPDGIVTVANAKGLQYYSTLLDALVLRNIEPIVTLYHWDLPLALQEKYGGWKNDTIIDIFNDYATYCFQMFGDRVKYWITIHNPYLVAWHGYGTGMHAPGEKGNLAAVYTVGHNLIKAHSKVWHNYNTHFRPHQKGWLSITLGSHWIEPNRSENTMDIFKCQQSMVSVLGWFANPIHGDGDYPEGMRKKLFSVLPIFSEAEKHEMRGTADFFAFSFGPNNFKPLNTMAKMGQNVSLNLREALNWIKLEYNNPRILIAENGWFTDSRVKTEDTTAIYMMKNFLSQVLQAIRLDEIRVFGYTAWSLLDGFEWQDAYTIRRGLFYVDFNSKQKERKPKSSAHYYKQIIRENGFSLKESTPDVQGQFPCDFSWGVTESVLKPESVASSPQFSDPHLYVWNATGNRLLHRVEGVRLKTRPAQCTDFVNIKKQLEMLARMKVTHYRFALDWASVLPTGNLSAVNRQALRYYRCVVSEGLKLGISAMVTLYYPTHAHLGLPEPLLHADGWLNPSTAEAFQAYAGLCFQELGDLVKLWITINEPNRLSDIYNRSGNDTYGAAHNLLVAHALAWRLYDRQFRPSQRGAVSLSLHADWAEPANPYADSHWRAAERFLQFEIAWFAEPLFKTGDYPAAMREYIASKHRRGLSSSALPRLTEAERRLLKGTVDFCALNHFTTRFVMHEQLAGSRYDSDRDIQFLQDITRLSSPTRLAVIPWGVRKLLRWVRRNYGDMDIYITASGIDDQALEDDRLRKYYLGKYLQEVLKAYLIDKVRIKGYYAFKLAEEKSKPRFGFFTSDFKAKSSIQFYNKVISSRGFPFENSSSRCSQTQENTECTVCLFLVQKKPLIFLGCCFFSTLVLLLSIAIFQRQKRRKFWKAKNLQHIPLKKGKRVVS
KLB/FGFR4 on KLB/FGFR4 expressing cells, sequence (P22455 22-802 limits assumed, chain 2 of 2, further chain): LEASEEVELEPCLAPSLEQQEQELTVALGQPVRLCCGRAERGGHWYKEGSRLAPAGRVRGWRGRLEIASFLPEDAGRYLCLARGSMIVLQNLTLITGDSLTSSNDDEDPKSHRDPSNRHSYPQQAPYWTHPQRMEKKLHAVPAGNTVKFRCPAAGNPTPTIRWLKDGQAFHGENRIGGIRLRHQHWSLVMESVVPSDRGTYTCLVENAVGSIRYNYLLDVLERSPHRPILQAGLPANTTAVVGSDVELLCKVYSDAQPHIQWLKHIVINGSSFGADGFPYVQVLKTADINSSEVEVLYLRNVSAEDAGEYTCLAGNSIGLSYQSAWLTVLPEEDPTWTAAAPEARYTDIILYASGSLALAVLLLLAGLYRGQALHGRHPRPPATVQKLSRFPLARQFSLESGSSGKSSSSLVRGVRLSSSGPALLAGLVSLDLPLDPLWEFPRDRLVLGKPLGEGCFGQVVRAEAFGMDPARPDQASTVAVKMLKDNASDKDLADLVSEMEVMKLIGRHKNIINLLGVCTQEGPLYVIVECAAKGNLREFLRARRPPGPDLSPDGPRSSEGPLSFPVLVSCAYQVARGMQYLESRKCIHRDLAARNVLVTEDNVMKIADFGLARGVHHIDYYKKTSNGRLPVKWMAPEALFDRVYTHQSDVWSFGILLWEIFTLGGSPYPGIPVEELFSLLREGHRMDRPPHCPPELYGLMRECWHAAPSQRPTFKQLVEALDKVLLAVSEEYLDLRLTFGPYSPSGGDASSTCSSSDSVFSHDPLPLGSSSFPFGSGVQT

KLB (beta-klotho) on KLB only expressing cells, sequence (Q86Z14 whole entry): as the sequence (Q86Z14 whole entry, chain 1 of 2) above

Row | fold increase of pERK at 3000 nM [1] | fold increase in pERK at the highest concentration of 3000 nM [2] | Substance
1 | 2 fold | – | FGF-19 (from UniProt O95750 25-216) (ligand)
2 | – | < 2 fold | Mutant FGF21-GalNAc-SA-PEG-20 kDa (BIO89-100) (from UniProt Q9NSA1 29-209) (ligand)
3 | 2 fold | < 2 fold | native FGF-21 (from UniProt Q9NSA1 29-209) (ligand)
